In patent US20260265389A1 (CANTAI THERAPEUTICS, published 2026):

Legend:
[1] = molecular target: T1, IL-23 heterodimer (IL-23α & IL-12β) (Homo sapiens (Human), UniProt Q9NPF7 20-189; P29460 23-328); assay: BLI (Octet); how IL-23 was offered is not described
T1 construct: also called heteromeric IL-23
T1 sequence 1: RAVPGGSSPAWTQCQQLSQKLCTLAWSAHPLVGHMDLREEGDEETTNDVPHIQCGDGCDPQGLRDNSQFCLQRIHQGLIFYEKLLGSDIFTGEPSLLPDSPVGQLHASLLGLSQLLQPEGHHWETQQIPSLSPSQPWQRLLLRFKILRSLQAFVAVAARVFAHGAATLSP
T1 sequence 2: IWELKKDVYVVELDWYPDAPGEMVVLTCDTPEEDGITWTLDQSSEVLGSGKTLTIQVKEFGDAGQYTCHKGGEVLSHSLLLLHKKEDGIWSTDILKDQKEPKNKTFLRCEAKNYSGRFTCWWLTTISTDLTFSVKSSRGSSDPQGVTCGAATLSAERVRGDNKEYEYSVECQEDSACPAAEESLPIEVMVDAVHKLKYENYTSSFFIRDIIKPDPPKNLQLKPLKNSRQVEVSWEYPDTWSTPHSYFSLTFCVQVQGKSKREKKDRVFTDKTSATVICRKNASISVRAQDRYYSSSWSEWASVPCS

[2] = molecular target: T2, biotinylated recombinant human TL1A (human, UniProt O95150 72-251, limits assumed, biotinylated (site not stated)); assay: BLI (Octet); by Example 12 biotinylated recombinant human TL1A on streptavidin sensors, dipped into the bispecific antibody for 0-300 s; the sheet does not name the loaded protein or the antibody concentration
T2 sequence: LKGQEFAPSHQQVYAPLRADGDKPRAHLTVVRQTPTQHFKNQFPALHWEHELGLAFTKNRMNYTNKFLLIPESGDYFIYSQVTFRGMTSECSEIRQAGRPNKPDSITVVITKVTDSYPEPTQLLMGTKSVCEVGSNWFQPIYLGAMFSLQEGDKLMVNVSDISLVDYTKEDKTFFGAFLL
Method: Kinetic determination and assessment of pH dependency was performed on Octet BLI platform. Briefly, knob-in-hole bispecific antibodies that were prepared according to method described in Example 10 were used for this assay. Briefly, biotinylated recombinant human TL1A was diluted to 7.5 nM in kinetics buffer (1×PBS pH 7.4, 0.1% BSA, 0.05% Tween20, 0.05% sodium azide) and loaded onto streptavidin sensors for a period of 5 minutes. Sensors were then baselined in kinetics buffer before being dipped into bispecific antibodies diluted to varying concentrations, with two-fold serial dilutions for a 5-minute association step, followed by a 15-minute dissociation step. Top concentrations were determined based on approximate KD determined during a scouting experiment. Referencing was performed using a loaded sensor that was dipped into buffer as opposed to antibody, as well as unloaded sensors dipped into antibody. Then, data was aligned and fitted.

monomeric TL1A = molecular target: T3, monomeric TL1A (human, UniProt O95150 72-251, limits assumed); assay: SPR, antibody captured by anti-human IgG-Fc, TL1A monomer as analyte, pH 7.4; pH 7.4, monomeric TL1A as analyte
T3 construct: also called TL1A monomer
T3 sequence: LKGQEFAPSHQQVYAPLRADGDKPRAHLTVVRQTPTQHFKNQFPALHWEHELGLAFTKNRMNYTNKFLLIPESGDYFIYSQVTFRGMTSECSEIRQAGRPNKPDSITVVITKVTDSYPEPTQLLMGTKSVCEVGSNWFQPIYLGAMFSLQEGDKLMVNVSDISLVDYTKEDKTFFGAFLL
Method: Binding kinetic assays were performed for determining pH dependent binding activity of a lead TL1A binding antibody candidate, as identified in Example 3, and 7 different variants thereof using surface plasma resonance (SPR) spectroscopy. Each TL1A binding candidate comprised a VH sequence that comprised at least one modification in CDR or framework region of variable region of the VH sequence. Briefly, an amine-coupled anti-human IgG-Fc specific polyclonal antibody was immobilized on a SPR sensor chip. All TL1A binding antibody candidates were expressed at 1 mL scale in chinese hamster ovary (CHO) cells for 6 days, and supernatant was cleared of cells by centrifugation. To form a captured antibody array, TL1A binding antibody candidates were batch diluted to approximately 1.7-13.3 nM (either after Protein A purification or directly from CHO supernatant) and injected onto the chip. Non-regenerative kinetics were measured by injecting TL1A monomer starting at a concentration of 2.57E-10 M, with 6-fold increase in concentration up to 3.33E-07 M at pH 7.4 and 5.8, respectively. Likewise, non-regenerative kinetics were also measured for TL1A trimer starting at a concentration of 2.57E-10 M, with 6-fold increase in concentration up to 3.33E-07 M at pH 7.4. Each analyte injection flowed over the array at […] for a 5-minute association phase, followed by a 10-minute buffer dissociation phase. Binding was detected and relative capture response units (RU) were collected for each antibody on the surface.

Row | binding result [1] | binding result [2] | Kd (monomeric TL1A) [nM] | Binder
1 | binds | binds |  | bispecific antibody candidate II-1 (bispecific antibody, IgG1, V domains shown, hIgG1, 1:1 knob-in-hole; also called 11-1; knob-in-hole bispecific antibody) VH 1: QVQLVQSGAEVKKPGSSVKVSCKASGGTFTIYAISWVRQAPGQGLEWMGGILPIFGTGHYVQKFQGRVTITADESTSTSYMELSSLRSEDTAVYYCAREPENWGQGTLVTVSS VH 2: QVQLQESGPGLVEPSGTLSLTCAVSGGSISSRNWWSWVRQPPGKGLEWIGEIYHSGSTNYNPSLKSRVTISVDKSKNQFSLNLNSVTAADTAVYYCARDNDILTGYFDGYFDYWGQGTLVTVSS VL: not shown
2 | binds | binds |  | bispecific antibody candidate II-2 (bispecific antibody, IgG1, V domains shown, hIgG1, 1:1 knob-in-hole; also called 11-2; knob-in-hole bispecific antibody) VH 1: QVQLVQSGAEVKKPGASVKVSCTASGDAFTGDSIHWVRQAPGQGLEWMGWITPNSGGTSYAQRFQGRVTLTRDTSISTVYMDLRRLRSDDTAVYFCASGLTVPFDYWGQGTLVTVSS VH 2: QVQLQESGPGLVEPSGTLSLTCAVSGGSISSRNWWSWVRQPPGKGLEWIGEIYHSGSTNYNPSLKSRVTISVDKSKNQFSLNLNSVTAADTAVYYCARDNDILTGYFDGYFDYWGQGTLVTVSS VL: not shown
3 |  |  | 5.53 | TL1A binding antibody candidate 2 of TABLE 47 (VH SEQ ID NO: 903, VL SEQ ID NO: 1768) (antibody, V domains shown, It was expressed in CHO cells and captured by an anti-human IgG-Fc antibody (human IgG Fc)) VH: QVQLQESGPGLVKPSGTLSLTCAVSGGSISSRNWWSWVRQPPGKGLEWIGEIYHSGSTNYNPSLKSRVTISVDKSKNQFSLNLNSVTAADTAVYYCARDNDILDGYFDGYFDYWGQGTLVTVSS VL: not shown
4 |  |  | 5.19 | TL1A binding antibody candidate 5 of TABLE 47 (VH SEQ ID NO: 907, VL SEQ ID NO: 1768) (antibody, V domains shown, It was expressed in CHO cells and captured by an anti-human IgG-Fc antibody (human IgG Fc)) VH: QVQLQESGPGLVKPSGTLSLTCAVSGGSITSRNWWSWVRQPPGKGLEWIGEIYHSGSTNYNPSLKSRVTISVDKSKNQFSLNLNSVTAADTAVYYCARDNDILTGYFDGYFDYWGQGTLVTVSS VL: not shown
5 |  |  | 3.05 | TL1A binding antibody candidate 6 of TABLE 47 (VH SEQ ID NO: 908, VL SEQ ID NO: 1768) (antibody, V domains shown, It was expressed in CHO cells and captured by an anti-human IgG-Fc antibody (human IgG Fc)) VH: QVQLQESGPGLVKPSGTLSLTCAVSGGSISSRNWWSWVRQPPGKGLEWIGEIYHSGSTNYNPSLKSRVTISVDKSKNQFSLNVNSVTAADTAVYYCARDNDILTGYFDGYFDYWGQGTLVTVSS VL: not shown
6 |  |  | 4.57 | TL1A binding antibody candidate 7 of TABLE 47 (VH SEQ ID NO: 909, VL SEQ ID NO: 1768) (antibody, V domains shown, It was expressed in CHO cells and captured by an anti-human IgG-Fc antibody (human IgG Fc)) VH: QVQLQESGPGLVKPSGTLSLTCAVSGGSISSRNWWSWVRQPPGKGLEWIGEIYHSGSTNYNPSLKSRVTISVDKSKNQFSLNLKSVTAADTAVYYCARDNDILTGYFDGYFDYWGQGTLVTVSS VL: not shown
7 |  |  | 9.66 | TL1A binding antibody candidate 8 of TABLE 47 (VH SEQ ID NO: 933, VL SEQ ID NO: 1768) (antibody, V domains shown, It was expressed in CHO cells and captured by an anti-human IgG-Fc antibody (human IgG Fc)) VH: QVQLQESGPGLVEPSGTLSLTCAVSGGSISSRNWWSWVRQPPGKGLEWIGEIYHSGSTNYNPSLKSRVTISVDKSKNQFSLNLNSVTAADTAVYYCARDNDILTGYFDGYFDYWGQGTLVTVSS VL: not shown
8 |  |  | 6.46 | TL1A binding antibody candidate 1 of TABLE 47 (VH SEQ ID NO: 902, VL SEQ ID NO: 1768) (antibody, V domains shown, It was expressed in CHO cells and captured by an anti-human IgG-Fc antibody (human IgG Fc)) VH: QVQLQESGPGLVKPSGTLSLTCAVSGGSISSRNWWSWVRQPPGKGLEWIGEIYHSGSTNYNPSLKSRVIISVDKSKNQFSLNLNSVTAADTAVYYCARDNDILTGYFDGYFDYWGQGTLVTVSS VL: not shown
